According to patent US20240067748A1 (NONA BIOSCIENCES SUZHOU, published 2024):

T1: human Trop2 on cells (human, UniProt P09758 27-323)
T1 construct: whole, on cells; also called hTrop2; 293T-human Trop2 cells
T1 sequence (looked up): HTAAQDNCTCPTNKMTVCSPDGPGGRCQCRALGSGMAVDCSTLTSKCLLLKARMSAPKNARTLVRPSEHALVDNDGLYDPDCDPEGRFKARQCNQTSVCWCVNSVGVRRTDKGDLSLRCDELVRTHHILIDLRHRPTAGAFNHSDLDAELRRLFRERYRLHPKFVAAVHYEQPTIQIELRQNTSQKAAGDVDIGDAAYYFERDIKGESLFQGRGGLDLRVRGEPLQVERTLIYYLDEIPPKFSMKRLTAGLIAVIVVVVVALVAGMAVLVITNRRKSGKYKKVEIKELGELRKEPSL

T2: human TROP2 protein (Sino Biological, #10428-H08H) (human, UniProt P09758 27-274)
T2 construct: bought protein; also called human Trop2 protein antigen (His tag); not shown: His tag
T2 sequence (looked up): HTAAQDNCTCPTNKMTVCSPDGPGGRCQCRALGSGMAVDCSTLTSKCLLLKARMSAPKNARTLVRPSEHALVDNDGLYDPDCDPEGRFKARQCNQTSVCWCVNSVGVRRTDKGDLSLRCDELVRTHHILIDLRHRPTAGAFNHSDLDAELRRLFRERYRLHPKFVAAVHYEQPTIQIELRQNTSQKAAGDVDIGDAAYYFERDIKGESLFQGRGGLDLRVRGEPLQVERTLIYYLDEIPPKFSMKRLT

T3: monkey Trop2 protein (Sino Biological, #90893-C08H) (monkey, UniProt A0A2K5UE71 27-274)
T3 construct: bought protein; also called monkey Trop2 protein antigen (His tag)
T3 sequence: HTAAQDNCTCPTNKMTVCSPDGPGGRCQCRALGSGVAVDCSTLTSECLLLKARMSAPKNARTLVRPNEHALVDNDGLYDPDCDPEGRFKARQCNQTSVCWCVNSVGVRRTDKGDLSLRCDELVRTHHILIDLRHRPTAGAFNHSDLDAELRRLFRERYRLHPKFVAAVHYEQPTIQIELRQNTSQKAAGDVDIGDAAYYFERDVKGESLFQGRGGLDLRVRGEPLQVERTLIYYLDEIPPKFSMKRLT


Columns and labels:
[1] = molecular target: T1, human Trop2 on cells; assay: flow cytometry on 293T-human Trop2 cells
Method: The cell density was determined, and the cells were resuspended to 1×10⁶ cells/mL in PBS. 100 μL of cell suspension was taken from each well and added to a 96 well V-bottom plate. The 96-well V-bottom plate was centrifuged at 1000 rpm for 5 min and washed once with PBS+0.5% BSA (VWR, #0332-100G). […] After 1 h, the cells were washed twice with PBS+0.5% BSA. The cells were incubated with 100 μL of Alexa Fluor 488 goat anti-human IgG (Life technologies, 1:1000, #A-11013) at 4° C. for 1 h in the dark, and washed twice with PBS+0.5% BSA. The cells were resuspended in 200 μL of PBS+0.5% BSA. The fluorescence intensity of the cells was analyzed using a FACS verse flow cytometer. All procedures were performed on ice.

[2] = molecular target: T2, human TROP2 protein (Sino Biological, …); assay: BLI, Octet RED96, AHC sensor
Method: (§1) Specifically, a human TROP2 protein (Sino Biological, #10428-H08H) or a monkey Trop2 protein (Sino Biological, #90893-C08H) was diluted to 200 nM with a PBS buffer (pH 7.4) containing 0.1% (w/w) BSA and 0.02% (v/v) tween 20, and incubated with the AHC sensor respectively. 40 nM Trop2 antibody was incubated at 30° C. for 3 min with the AHC sensor loaded with the human Trop2 protein or monkey Trop2 protein respectively. The reaction mixture was incubated at 30° C. for another 5 min in a PBS buffer (pH 7.4) containing 0.1% (v/w) BSA and 0.02% (v/v) Tween 20. The association and dissociation signals between the Trop2 antibody and the human Trop2 protein or monkey Trop2 protein were recorded by Octet Red 96 in real time. The affinity and the association and dissociation constants were determined by Octet using software.

[3] = molecular target: T3, monkey Trop2 protein (Sino Biological, …); assay: BLI, Octet RED96, AHC sensor
Method: as §1

[4] = molecular target: T3, monkey Trop2 protein (Sino Biological, …); assay: BLI, Octet RED96; ratio against KD for human Trop2 protein
Method: as §1

| EC50 [1] | Maximum (MFI) [1] | Top % [1] | Kd [2] | Response [2] | koff [2] | kon [2] | Kd [3] | Response [3] | koff [3] | kon [3] | KD (monkey)/KD (human) [4] | fold lower KD than the reference antibody Tab (hRS7) [2] | Binder |
| --- | --- | --- | --- | --- | --- | --- | --- | --- | --- | --- | --- | --- | --- |
| 0.997 nM | 6600 MFI | 102% | 0.0251 nM | 0.326 | 3.74e-06 s⁻¹ | 149000 M⁻¹ s⁻¹ | 0.151 nM | 0.319 | 1.34e-05 s⁻¹ | 88300 M⁻¹ s⁻¹ | 6.02 | – | PR001171 (antibody, human IgG1, kappa, V domains shown, fully human IgG1/kappa; also called antibody No. (30)) VH: QVQLVESGGGVVQPGRSLRLSCAASGFTFSHYGMHWVRQAPGKGLEWVAVIWYDGIKKNYVESVKGRFTISRDNSKNTLNLQMNRLRAEDTAVYYCARDGGFGESNYYGLDVWGQGTTVTVSS VL: DIQLTQSPSFLSASVGDRVTITCRASQGISSYLGWYQQKPGKAPKLLIYIASTLQSGVPSRFSGSGSGTEFTLTISSLQPEDFATYYCQQLNSYPYTFGQGTKLEIKR |
| 0.977 nM | 6790 MFI | 105% | < 0.001 nM | 0.38 | < 1e-07 s⁻¹ | 176000 M⁻¹ s⁻¹ | 0.307 nM | 0.372 | 3.39e-05 s⁻¹ | 111000 M⁻¹ s⁻¹ | – | ~10 fold | PR001159 (antibody, human IgG1, kappa, V domains shown, fully human IgG1/kappa; also called antibody No. (21)) VH: QVQLVESGGGVVQPGRSLRLSCEASGFTFSHYGMHWVRQAPGKGLEWVAVIWYDGIKTNYVESVKGRFTISRDNSKNTLNLQMNRLRAEDTAVYYCARDGGFGESNYYGLDVWGQGTTVTVSS VL: DIQLTQSPSFLSASVGDRVTITCRASQGISSYLGWYQQKPGKAPKLLIYIASTLQSGVPSRFSGSGSGTEFTLTISSLQPEDFATYYCQQLNSYPYTFGQGTKLEIKR |
| 1.61 nM | 7510 MFI | 116% | 1.12 nM | 0.407 | 0.000127 s⁻¹ | 113000 M⁻¹ s⁻¹ | 2.38 nM | 0.351 | 0.00018 s⁻¹ | 75800 M⁻¹ s⁻¹ | 2.12 | – | PR001151 (antibody, human IgG1, kappa, V domains shown, fully human IgG1/kappa; also called antibody No. (14)) VH: QVQLVESGGGVVQPGRSLRLSCAASGFTFSHYGMHWVRQAPGKGLEWVAVIWYDGIKKDYVESVKGRFTISRDNSKNTLYLQMNRLRAEDTAVYYCARDGGFGELNYYGLDVWGQGTTVTVSS VL: DIQLTQSPSFLSASVGDRVTITCRASQGISSYLGWYQQKPGKAPKLLIYVASTLQSGVPSRFSGSGSGTEFTLTISSLQPEDFATYYCQQLNSYPYTFGQGTKLEIKR |
| 2.11 nM | 7470 MFI | 115% | 0.855 nM | 0.41 | 9.23e-05 s⁻¹ | 108000 M⁻¹ s⁻¹ | 1.91 nM | 0.379 | 0.000139 s⁻¹ | 72700 M⁻¹ s⁻¹ | 2.24 | – | PR001154 (antibody, human IgG1, kappa, V domains shown, fully human IgG1/kappa; also called antibody No. (17)) VH: QVQLVESGGGVVQPGRSLRLSCEASGFTFSHYGMHWVRQAPGKGLEWVAVIWYDGIKKYYIESVKGRFIISRDNSKNTLYLQMNRLRAEDTAVYYCARDGGFGELNYYGLDVWGQGTTVTVSS VL: DIQLTQSPSFLSASVGDRVTITCRASQGISSYLGWYQQKPGKAPKLLIYVASTLQSGVPSRFSGSGSGTEFTLTISSLQPEDFATYYCQQLNSYPYTFGQGTKLEIKR |
| 0.589 nM | 6570 MFI | 101% | 0.0326 nM | 0.382 | 5.25e-06 s⁻¹ | 161000 M⁻¹ s⁻¹ | 0.319 nM | 0.344 | 3.41e-05 s⁻¹ | 107000 M⁻¹ s⁻¹ | 9.76 | ~10 fold | PR001150 (antibody, human IgG1, kappa, V domains shown, fully human IgG1/kappa; also called antibody No. (13)) VH: QVQLVESGGGVVQPEKSLRLSCAASGFTFSHYGMHWVRQVPGKGLEWVAVIWYDGIKRYYVESVKGRFTISRDNSKNTLYLQMNRLRAEDTAVYYCARDGGFGESNYYGLDVWGQGTTVTVSS VL: DIQLTQSPSFLSASVGDRVTITCRASQGINSYLGWYQRKPGKAPKLLIYIASTLQSGVPSRFSGSGSGTEFTLTISSLQPEDFATYYCQQLNSYPYTFGQGTKLEIKR |
| 1.93 nM | 7180 MFI | 111% | 0.135 nM | 0.348 | 2.08e-05 s⁻¹ | 154000 M⁻¹ s⁻¹ | 1.02 nM | 0.343 | 0.000105 s⁻¹ | 103000 M⁻¹ s⁻¹ | 7.57 | – | PR001152 (antibody, human IgG1, kappa, V domains shown, fully human IgG1/kappa; also called antibody No. (15)) VH: QVQLVESGGAVVQPGRSLRLSCAASGFTFSHYGMHWVRQAPGKGLEWVAVIWYDGIKSYYVESVKGRFTISRDNSKNTLYLQMDRLRAEDTAVYYCARDGGFGESNYYGLDVWGQGTTVTVSS VL: DIQLTQSPSFLSASVGDRVTITCRASQGINSYLGWYQRKPGKAPKLLIYIASTLQSGVPSRFSGSGSGTEFTLTISSLQPEDFATYYCQQLNSYPYTFGQGTKLEIKR |
| 0.478 nM | 6730 MFI | 104% | < 0.001 nM | 0.338 | < 1e-07 s⁻¹ | 148000 M⁻¹ s⁻¹ | 0.409 nM | 0.329 | 3.98e-05 s⁻¹ | 97400 M⁻¹ s⁻¹ | – | ~10 fold | PR001138 (antibody, human IgG1, kappa, V domains shown, fully human IgG1/kappa; also called antibody No. (7)) VH: QVQLQESGPRLVKPSETLSLTCAVSGYSISSGYYWGWIRQSPGMGLEWIAYIYHDGSTYCNPSLKSRVTMSVDTSKNQFSLKLRSVTAADTAVYYCARDGAAAPFDYWGQGTLVTVSS VL: DIQMTQSPSTLSASVGDRVTITCRASQSISNWLAWYQQKPGKAPKVLIYKASSLESGVPSRFSGSGSGTEFTLTINSLQPDDFATYYCQQYDSYSITFGQGTRLEIKR |
| 0.441 nM | 6920 MFI | 107% | < 0.001 nM | 0.417 | < 1e-07 s⁻¹ | 121000 M⁻¹ s⁻¹ | 0.164 nM | 0.418 | 1.43e-05 s⁻¹ | 86900 M⁻¹ s⁻¹ | – | ~10 fold | PR001132 (antibody, human IgG1, kappa, V domains shown, fully human IgG1/kappa; also called antibody No. (4)) VH: QVELVESGGGVVQPGRSLRLSCGASGFTFSSYNMYWVRQAPGKGLEWVAGIWDDGNNKYYANSVKGRFTISRDNSKNTLYLQMNSLRTEDTALYYCAKDGWGSYGEYFQHWGQGTLVTVSS VL: DIQMTQSPSSLSASVGERVTITCRASQNINSYLSWYQQKPGKAPKLLIYAASSLQNGVPSRFSGSGSGTDFTLTISSLQPEDFATYYCQQSFSTPPITFGQGTRLEIKR |
| 0.352 nM | 6960 MFI | 107% | < 0.001 nM | 0.368 | < 1e-07 s⁻¹ | 476000 M⁻¹ s⁻¹ | < 0.001 nM | 0.387 | < 1e-07 s⁻¹ | 307000 M⁻¹ s⁻¹ | – | – | PR001170 (antibody, human IgG1, kappa, V domains shown, fully human IgG1/kappa; also called antibody No. (29)) VH: QVQLQESGPGLVKPSETLSLTCAVSGYSINSGYFWAWIRQPPGMGLEWIGSIYHSGRTHYNPSLKSRVIISLDTSKNQFSLKLRSVTAADSAVYYCAREGYASGSYYWGQGTLVTVSS VL: EIVMTQSPATLSVSPGERATLSCRSSQSVNSYLAWFQQKPGQAPRLLIYDSSTRATGIPARFSGSGSGTEFTLTISSLQSEDFAFYFCQQYENWPLTFGGGTKVEIKR |
